In article PMC3993263:

T1: RaaS (UniProt O86312)
T1 sequence: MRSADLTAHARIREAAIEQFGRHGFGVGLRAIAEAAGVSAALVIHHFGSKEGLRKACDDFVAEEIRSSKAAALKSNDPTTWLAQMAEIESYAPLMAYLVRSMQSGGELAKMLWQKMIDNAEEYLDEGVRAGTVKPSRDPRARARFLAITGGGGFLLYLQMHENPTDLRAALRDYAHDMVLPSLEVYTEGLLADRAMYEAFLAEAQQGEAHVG

T2: RaaS (UniProt O86312 1-212)
T2 sequence: T1 sequence

B1: M5 (dsDNA)
DNA 1: GGGATGAACGTACGAAAAATATCCTGAACATGCGTTCAG
DNA 2: GGGCTGAACGCATGTTCAGGATATTTTTCGTACGTTCAT
B2: M6 (single repeat) (dsDNA)
DNA 1: GGGTGAACATGCGTTCA
DNA 2: GGGTGAACGCATGTTCA

Experiments:
RaaS [1] = molecular target: T1, RaaS; test: fluorescence anisotropy; conditions: anisotropy: 50 mM Tris-HCl pH 8.5, 150 mM NaCl, temperature not stated
RaaS [2] = molecular target: T2, RaaS; test: EMSA; 20 nM DNA, 170 nM RaaS; […]; anisotropy: 50 mM Tris-HCl pH 8.5, 150 mM NaCl; temperature not stated; conditions: protein: recombinant; tags: 6xHis (pET15-Tev); chain copies: 2; label: 32P; 5' overhang 3 nt on both strands

Molecule	Kd (RaaS [1])	binding result (RaaS [2])
labeled RaaS-site oligonucleotide (anisotropy)	31 nM	–
B1	–	no binding
B2	–	no binding
